Laboratory results: the supplement of paper PMC5998384

Test system: HeLa Kyoto
Assay: thermal stability score vs G1/S (z-score of summed log2 fold changes over temperatures); higher = more thermally stable than in G1/S
[1] = cell cycle stage: early G1 (4.5 h after nocodazole release)
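Also: synchronized HeLa Kyoto cells, proteins quantified by TMT10plex mass spectrometry, three biological replicates, mitosis taken 0.5 h after nocodazole release, G1/S directly after double thymidine block.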

| Sequence | thermal stability score [1] | thermal stability score (cell cycle stage: mitosis) |
| --- | --- | --- |
| MAAGLRKRGRSGSAAQAEGLCKQWLQRAWQERRLLLREPRYTLLVAACLCLAEVGITFWVIHRVAYTEIDWKAYMAEVEGVINGTYDYTQLQGDTGPLVYPAGFVYIFMGLYYATSRGTDIRMAQNIFAVLYLATLLLVFLIYHQTCKVPPFVFFFMCCASYRVHSIFVLRLFNDPVAMVLLFLSINLLLAQRWGWGCCFFSLAVSVKMNVLLFAPGLLFLLLTQFGFRGALPKLGICAGLQVVLGLPFLLENPSGYLSRSFDLGRQFLFHWTVNWRFLPEALFLHRAFHLALLTAHLTLLLLFALCRWHRTGESILSLLRDPSKRKVPPQPLTPNQIVSTLFTSNFIGICFSRSLHYQFYVWYFHTLPYLLWAMPARWLTHLLRLLVLGLIELSWNTYPSTSCSSAALHICHAVILLQLWLGPQPFPKSTQHSKKAH [ALG3] | 1.41 | 2.38 |
| MAALEKMTFPKKMTFPEKPSHKKYRAALKKEKRKKRRQELARLRDSGLSQEEEEDTFIEEQQLEEEKLLERERERLHEEWLLREQKAQEEFRIKKEKEEAAKKWLEEQERKLKEQWKEQQRKEREEEEQKQQEKKEKEEAVQKMLDQAENDLENSTTWQNPEPPVDFRVMEKDRANCPFYSKTGACRFGDRCSRKHNFPTSSPTLLIKSMFTTFGMEQCRRDDYDPDASLEYSEEETYQQFLDFYEDVLPEFKNVGKVIQFKVSCNLEPHLRGNVYVQYQSEEECQAALSLFNGRWYAGRQLQCEFCPVTRWKMAICGLFEIQQCPRGKHCNFLHVFRNPNNEFWEANRDIYLSSDQTGSSFGKNSERREKMGHHDHYYSRQRGRRNPSPDHTYKRNGESERKKSSHRGKKSHKRTSKSRERHNSPSRGRNRHRSWDQGRRSQSRRSHRSRSQSSSRCRSRGRRKSGNRDRTVQSPQSK [ZRSR1] | 1.06e-17 | 1.37e-17 |
| MAEQVLPQALYLSNMRKAVKIRERTPEDIFKPTNGIIHHFKTMHRYTLEMFRTCQFCPQFREIIHKALIDRNIQATLESQKKLNWCREVRKLVALKTNGDGNCLMHATSQYMWGVQDTDLVLRKALFSTLKETDTRNFKFRWQLESLKSQEFVETGLCYDTRNWNDEWDNLIKMASTDTPMARSGLQYNSLEEIHIFVLCNILRRPIIVISDKMLRSLESGSNFAPLKVGGIYLPLHWPAQECYRYPIVLGYDSHHFVPLVTLKDSGPEIRAVPLVNRDRGRFEDLKVHFLTDPENEMKEKLLKEYLMVIEIPVQGWDHGTTHLINAAKLDEANLPKEINLVDDYFELVQHEYKKWQENSEQGRREGHAQNPMEPSVPQLSLMDVKCETPNCPFFMSVNTQPLCHECSERRQKNQNKLPKLNSKPGPEGLPGMALGASRGEAYEPLAWNPEESTGGPHSAPPTAPSPFLFSETTAMKCRSPGCPFTLNVQHNGFCERCHNARQLHASHAPDHTRHLDPGKCQACLQDVTRTFNGICSTCFKRTTAEASSSLSTSLPPSCHQRSKSDPSRLVRSPSPHSCHRAGNDAPAGCLSQAARTPGDRTGTSKCRKAGCVYFGTPENKGFCTLCFIEYRENKHFAAASGKVSPTASRFQNTIPCLGRECGTLGSTMFEGYCQKCFIEAQNQRFHEAKRTEEQLRSSQRRDVPRTTQSTSRPKCARASCKNILACRSEELCMECQHPNQRMGPGAHRGEPAPEDPPKQRCRAPACDHFGNAKCNGYCNECFQFKQMYG [TNFAIP3] | 0.262 | -0.606 |
| MAGLKRRVPLHSLRYFISMVGLFSKPGLLPWYARNPPGWSQLFLGTVCKGDFTRVIATKCQKGQKSQKKPSHLGPLDGSWQERLADVVTPLWRLSYEEQLKVKFAAQKKILQRLESYIQMLNGVSVTTAVPKSERLSCLLHPIIPSPVINGYRNKSTFSVNRGPDGNPKTVGFYLGTWRDGNVVCVQSNHLKNIPEKHSQVAQYYEVFLRQSPLEPCLVFHEGGYWRELTVRTNSQGHTMAIITFHPQKLSQEELHVQKEIVKEFFIRGPGAACGLTSLYFQESTMTRCSHQQSPYQLLFGEPYIFEELLSLKIRISPDAFFQINTAGAEMLYRTVGELTGVNSDTILLDICCGTGVIGLSLAQHTSRVLGIELLEQAVEDARWTAAFNGITNSEFHTGQAEKILPGLLKSKEDGQSIVAVVNPARAGLHYKVIQAIRNFRAIHTLVFVSCKLHGESTRNVIELCCPPDPAKKLLGEPFVLQQAVPVDLFPHTPHCELVLLFTR [TRMT2B] | 0.356 | 1.27 |
| MAPLRPLLILALLAWVALADQESCKGRCTEGFNVDKKCQCDELCSYYQSCCTDYTAECKPQVTRGDVFTMPEDEYTVYDDGEEKNNATVHEQVGGPSLTSDLQAQSKGNPEQTPVLKPEEEAPAPEVGASKPEGIDSRPETLHPGRPQPPAEEELCSGKPFDAFTDLKNGSLFAFRGQYCYELDEKAVRPGYPKLIRDVWGIEGPIDAAFTRINCQGKTYLFKGSQYWRFEDGVLDPDYPRNISDGFDGIPDNVDAALALPAHSYSGRERVYFFKGKQYWEYQFQHQPSQEECEGSSLSAVFEHFAMMQRDSWEDIFELLFWGRTSAGTRQPQFISRDWHGVPGQVDAAMAGRIYISGMAPRPSLAKKQRFRHRNRKGYRSQRGHSRGRNQNSRRPSRATWLSLFSSEESNLGANNYDDYRMDWLVPATCEPIQSVFFFSGDKYYRVNLRTRRVDTVDPPYPRSIAQYWLGCPAPGHL [VTN] | 2.31 | -1.24 |
| MASAVFEGTSLVNMFVRGCWVNGIRRLIVSRRGDEEEFFEIRTEWSDRSVLYLHRSLADLGRLWQRLRDAFPEDRSELAQGPLRQGLVAIKEAHDIETRLNEVEKLLKTIISMPCKYSRSEVVLTFFERSPLDQVLKNDNVHKIQPSFQSPVKISEIMRSNGFCLANTETIVIDHSIPNGRDQQLGVDPTEHLFENGSEFPSELEDGDDPAAYVTNLSYYHLVPFETDIWD [PXDC1] | -0.022 | 0.549 |
| MDPETRGQEIIKVTPLQQMLASCTGAILTSVIVTPLDVVKIRLQAQNNPLPKGKCFVYSNGLMDHLCVCEEGGNKLWYKKPGNFQGTLDAFFKIIRNEGIKSLWSGLPPTLVMAVPATVIYFTCYDQLSALLRSKLGENETCIPIVAGIVARFGAVTVISPLELIRTKMQSKKFSYVELHRFVSKKVSEDGWISLWRGWAPTVLRDVPFSAMYWYNYEILKKWLCEKSGLYEPTFMINFTSGALSGSFAAVATLPFDVVKTQKQTQLWTYESHKISMPLHMSTWIIMKNIVAKNGFSGLFSGLIPRLIKIAPACAIMISTYEFGKAFFQKQNVRRQQY [SLC25A40] | -1.32 | -2.29 |
| MEPGEVKDRILENISLSVKKLQSYFAACEDEIPAIRNHDKVLQRLCEHLDHALLYGLQDLSSGYWVLVVHFTRREAIKQIEVLQHVATNLGRSRAWLYLALNENSLESYLRLFQENLGLLHKYYVKNALVCSHDHLTLFLTLVSGLEFIRFELDLDAPYLDLAPYMPDYYKPQYLLDFEDRLPSSVHGSDSLSLNSFNSVTSTNLEWDDSAIAPSSEDYDFGDVFPAVPSVPSTDWEDGDLTDTVSGPRSTASDLTSSKASTRSPTQRQNPFNEEPAETVSSSDTTPVHTTSQEKEEAQALDPPDACTELEVIRVTKKKKIGKKKKSRSDEEASPLHPACSQKKCAKQGDGDSRNGSPSLGRDSPDTMLASPQEEGEGPSSTTESSERSEPGLLIPEMKDTSMERLGQPLSKVIDQLNGQLDPSTWCSRAEPPDQSFRTGSPGDAPERPPLCDFSEGLSAPMDFYRFTVESPSTVTSGGGHHDPAGLGQPLHVPSSPEAAGQEEEGGGGEGQTPRPLEDTTREAQELEAQLSLVREGPVSEPEPGTQEVLCQLKRDQPSPCLSSAEDSGVDEGQGSPSEMVHSSEFRVDNNHLLLLMIHVFRENEEQLFKMIRMSTGHMEGNLQLLYVLLTDCYVYLLRKGATEKPYLVEEAVSYNELDYVSVGLDQQTVKLVCTNRRKQFLLDTADVALAEFFLASLKSAMIKGCREPPYPSILTDATMEKLALAKFVAQESKCEASAVTVRFYGLVHWEDPTDESLGPTPCHCSPPEGTITKEGMLHYKAGTSYLGKEHWKTCFVVLSNGILYQYPDRTDVIPLLSVNMGGEQCGGCRRANTTDRPHAFQVILSDRPCLELSAESEAEMAEWMQHLCQAVSKGVIPQGVAPSPCIPCCLVLTDDRLFTCHEDCQTSFFRSLGTAKLGDISAVSTEPGKEYCVLEFSQDSQQLLPPWVIYLSCTSELDRLLSALNSGWKTIYQVDLPHTAIQEASNKKKFEDALSLIHSAWQRSDSLCRGRASRDPWC [PLEKHM2] | -1.92 | -1.58 |
